± gives the uncertainty stated by the source.
Experiment: amyloid nucleation score (Sup35N fusion, yeast selection) (log enrichment); library NNK3; higher = more nucleation; inactive = no reads after selection
Summary of the method: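 Libraries of peptides of 20 random codons fused to Sup35N were expressed in psi-negative yeast and induced 24 hours with 100 μM copper sulfate. Selection was 7 days at 30°C on medium lacking adenine and uracil, and plasmid inserts were Illumina-sequenced before and after selection. Nucleation score is the DiMSum log enrichment of output over input reads, centred on the mode score of non-aggregating sequences, and sequences with under 100 input reads were left out.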
For NTLWYIWGG, the amyloid nucleation score was “inactive”. For KRLVMWPRLRSRYWHKRAEQ, the amyloid nucleation score was “inactive”. With FECGRFMGLVVLAVRSGNVM the amyloid nucleation score was “inactive”. For DCSSNVRTSCWNHRSYHVVY, the amyloid nucleation score was “inactive”. For HSRRYILNVP, the amyloid nucleation score was 0.935 ± 0.085. For LLELRVVRLRTNVAVVHIYV, the amyloid nucleation score was “inactive”. For FYDHRIRSCGLVFIKECVTP, the amyloid nucleation score was “inactive”. With MGDSVFRCLCNTYALLFPPV the amyloid nucleation score was “inactive”. With YDRGIVWH the amyloid nucleation score was “inactive”. For NVMSLSMWSSLSLWYSGLS, the amyloid nucleation score was “inactive”. Substance NLTINVVAVQFLFMTTGY has an amyloid nucleation score of 2.63 ± 0.08. In the case of NLCSCDNWRRRRCASMWALV, the amyloid nucleation score is reported as “inactive”. With SITDESASPPSRWKLGRFR the amyloid nucleation score was “inactive”. In the case of GKVSAFCMHGGYTCDLSVEL, the amyloid nucleation score is reported as “inactive”. With SSTLHRQIRRGVTVNELLRG the amyloid nucleation score was “inactive”. For GTIRQS, the amyloid nucleation score was “inactive”. In the case of CGIYTFLRLRD, the amyloid nucleation score is reported as “inactive”. For SIFLDEIDFKIT, the amyloid nucleation score was 0.409 ± 0.16. Work on LNLNFKVRGL yielded an amyloid nucleation score of 0.654 ± 0.27. With RVATGVVCMM the amyloid nucleation score was “inactive”. For ILTIEDGIIYC, the amyloid nucleation score was “inactive”. For MFMYCPCSLEDICLRFPTPV, the amyloid nucleation score was “inactive”. In the case of SAKSRFSRIVSRFYHMVICA, the amyloid nucleation score is reported as “inactive”. For SDCYCNSQAVAWLFDRVFVF, the amyloid nucleation score was “inactive”. In the case of SGATLLC, the amyloid nucleation score is reported as “inactive”. In the case of GFYVRRGCLWGGYNHVFAIF, the amyloid nucleation score is reported as “inactive”. Work on NLLLFF yielded an amyloid nucleation score of 1.82 ± 0.096. In the case of ASSLHDPMRYVQTFRISWCC, the amyloid nucleation score is reported as 1.34 ± 0.12. With TRISTG the amyloid nucleation score was “inactive”. In the case of RKKRY, the amyloid nucleation score is reported as “inactive”. With YITKLTGWTIE the amyloid nucleation score was “inactive”. For VEDKCVWFV, the amyloid nucleation score was “inactive”. In the case of EVYKYKSEERMVAST, the amyloid nucleation score is reported as “inactive”. In the case of IYLMVFNCMFEVTFRLSVES, the amyloid nucleation score is reported as “inactive”. In the case of DKGFINCVSGSGDHVTCGGS, the amyloid nucleation score is reported as “inactive”. In the case of GNISIWGFRNSWALDLIAGY, the amyloid nucleation score is reported as “inactive”. With KFGEAWIIPRDRVMEVFEW the amyloid nucleation score was “inactive”. For TMLLLWYLHWSPAPRDCYLP, the amyloid nucleation score was “inactive”. Substance TICVYHVSFCIQHRVSRGLL has an amyloid nucleation score of -0.18 ± 0.36. In the case of LFCVLP, the amyloid nucleation score is reported as “inactive”. For GFLCDGGN, the amyloid nucleation score was 0.149 ± 0.51. With RMFWRYWYSQEMGYDRAIKG the amyloid nucleation score was “inactive”. In the case of GLSMLGGLNDSRTCSLVSNV, the amyloid nucleation score is reported as “inactive”. In the case of INLGKTSIRSIDRNNVCMLG, the amyloid nucleation score is reported as “inactive”. With CRRVDFGSLSRFMGSGFNVD the amyloid nucleation score was “inactive”. With YSWRGIFNGWFFCFMARVLG the amyloid nucleation score was “inactive”. With VCQESPSEIGES the amyloid nucleation score was “inactive”. In the case of ILIEVFLWSCYKYVNC, the amyloid nucleation score is reported as “inactive”. In the case of MTDDRWLRRRVSPCSVRRFS, the amyloid nucleation score is reported as “inactive”. For YEYYGVKRCIVLG, the amyloid nucleation score was “inactive”. With IIMISLITYFLSLNTSKLYQ the amyloid nucleation score was “inactive”. In the case of SDWRRISVLIMFTEARSFLV, the amyloid nucleation score is reported as “inactive”. With TSPPGRIDMQTSWDMFYADE the amyloid nucleation score was “inactive”. For WASDNVEGDWWYWW, the amyloid nucleation score was 0.017 ± 0.57. For LFQIM, the amyloid nucleation score was “inactive”. For VLYCGHCFVFTRCSGWVQLG, the amyloid nucleation score was “inactive”. For DSFLVYIKSCIIILTGLNLY, the amyloid nucleation score was “inactive”. In the case of QLLGNGP, the amyloid nucleation score is reported as “inactive”. With GWVIDRLYGDDMSSILEL the amyloid nucleation score was “inactive”. For NFSMCINRNKVPCVHLLDTL, the amyloid nucleation score was “inactive”. For FLHVRLRHSWVV, the amyloid nucleation score was “inactive”. For FCARYLFCLISGDYS, the amyloid nucleation score was “inactive”. With MFRTRTNNHDSVGRYLVTMN the amyloid nucleation score was “inactive”. For NLFSEFGMFNGKGPVGTSVG, the amyloid nucleation score was “inactive”. FCRCKLFFAGCF gave an amyloid nucleation score of 1.08 ± 0.13. VFKFALFTGTLLWLDHCVVS gave an amyloid nucleation score of 1.51 ± 0.14. With GLRKMRGLTQ the amyloid nucleation score was “inactive”. For VLCFI, the amyloid nucleation score was “inactive”. With PLLGSIFRFWWRGDTLMYRL the amyloid nucleation score was “inactive”. Substance EFCVYMSNGGKNLRTRTWAQ has an amyloid nucleation score of 0.54 ± 0.31. For KLILKYCIRCQNGYDSARMS, the amyloid nucleation score was -0.291 ± 0.5. For KTFCVVDTR, the amyloid nucleation score was “inactive”. Substance TVVMIFLISYNFF has an amyloid nucleation score of 1.7 ± 0.1. Substance TACRFVSSRRELRIEVLTWF has an amyloid nucleation score of -0.755 ± 1.8. In the case of HKDTSDFISHVRVSPWPNKG, the amyloid nucleation score is reported as “inactive”. With SYGLKISLSHTFRSGRGMCG the amyloid nucleation score was “inactive”. With YKYGFAFCIIASAVSR the amyloid nucleation score was “inactive”. In the case of SNNLKLAPGSWVPYSDRIHR, the amyloid nucleation score is reported as “inactive”. With SFSKNVVDL the amyloid nucleation score was “inactive”. In the case of VRVSPLCIGRPALGQAIAVF, the amyloid nucleation score is reported as “inactive”. QLTNRKCR showed an amyloid nucleation score of -0.8 ± 2.5. Work on WIVLQTSNSRLMQWGAP yielded an amyloid nucleation score of 0.618 ± 0.27. In the case of GRDCICDLRMETIGDTFTGW, the amyloid nucleation score is reported as “inactive”. In the case of TSETRPIGDA, the amyloid nucleation score is reported as “inactive”. In the case of TYFILSDCQASNIFSPMSDE, the amyloid nucleation score is reported as 0.478 ± 0.14. Substance WLWKVSFK has an amyloid nucleation score of 1.41 ± 0.093. In the case of MIIYVKLPYRCLFFERHSDT, the amyloid nucleation score is reported as “inactive”. For EHYVDCVGDVAVRDVLVGAS, the amyloid nucleation score was “inactive”. For YSGCRVLLQWVEFSCRWIWY, the amyloid nucleation score was “inactive”. In the case of KYVSECK, the amyloid nucleation score is reported as “inactive”. With TYLIYGGG the amyloid nucleation score was “inactive”. In the case of MGAANSWETDKF, the amyloid nucleation score is reported as “inactive”. For IWTDDWFFVAVSDGKVSRLV, the amyloid nucleation score was “inactive”. In the case of YFILLGSAGRCAPMM, the amyloid nucleation score is reported as 0.71 ± 0.23. With IRGYFIPCGETLDEDLLFKQ the amyloid nucleation score was “inactive”. In the case of MFITRVLR, the amyloid nucleation score is reported as “inactive”. For RSGHRGHYKFEL, the amyloid nucleation score was “inactive”. In the case of GLPFLSTMELLLLLMSKTMR, the amyloid nucleation score is reported as “inactive”. With VNPISWGHVIVTYQN the amyloid nucleation score was “inactive”. In the case of EYYGRVLSLTVTNIHFFRVF, the amyloid nucleation score is reported as “inactive”. For YWSIKELWRFRQLVWRKYIV, the amyloid nucleation score was “inactive”. In the case of SCVLTFGFLILLRVPSYSRI, the amyloid nucleation score is reported as “inactive”. In the case of IIYVNTSEGVSVFRNWSDDV, the amyloid nucleation score is reported as “inactive”. For RHKWLFMWGCFHFNKCASH, the amyloid nucleation score was “inactive”. Work on SASGGFVLFLWLVCEGTFAG yielded an amyloid nucleation score of 0.069 ± 0.38. For NYVLRSMSGTRFRALWRVAP, the amyloid nucleation score was “inactive”. With LQANAI the amyloid nucleation score was “inactive”. In the case of KYICET, the amyloid nucleation score is reported as “inactive”. For DIDTLYTTIEKCFEDIT, the amyloid nucleation score was “inactive”. With EGGLDFVFLYYGIICWVVAA the amyloid nucleation score was 0.282 ± 0.74. For TILSPMASSQNKCDKNPMLS, the amyloid nucleation score was 1.19 ± 0.073. With LKDLGYELIILAFKRLFLCC the amyloid nucleation score was “inactive”. In the case of RICRYGAIDLMGVP, the amyloid nucleation score is reported as “inactive”. In the case of TRLLVWSETIAVWVRLQN, the amyloid nucleation score is reported as “inactive”. Substance YVCVPCPCELSIQCCVTITF has an amyloid nucleation score of 2.01 ± 0.061. For IVDGWR, the amyloid nucleation score was “inactive”. In the case of MGADGSLRALKRARS, the amyloid nucleation score is reported as “inactive”. For VSMSMRYQDASGVTSCFTSL, the amyloid nucleation score was “inactive”. For HLVAMMLCQLDTLTFYRYGG, the amyloid nucleation score was “inactive”. With SNWEFYDRYTYRRLGLEQKV the amyloid nucleation score was “inactive”. In the case of SCTLYAHALCPEQISPQFLH, the amyloid nucleation score is reported as “inactive”. In the case of NDGLAQSNIEIKDYRCRQNY, the amyloid nucleation score is reported as “inactive”. With INTKECYHSGS the amyloid nucleation score was “inactive”. With CQNLATRSFKALPLRSLCTC the amyloid nucleation score was “inactive”. Substance RPRALRQTLFDRYL has an amyloid nucleation score of 0.872 ± 0.13. With DSGKDKF the amyloid nucleation score was “inactive”. In the case of DFRLLWVQTMSFCLNYQAKL, the amyloid nucleation score is reported as “inactive”. With LLIMKGCAC the amyloid nucleation score was “inactive”. With GCSGVVVGCWRDPRICWLWW the amyloid nucleation score was “inactive”. In the case of GSHNAMLSAISADAGAWQRE, the amyloid nucleation score is reported as “inactive”. In the case of SCYTMAFPVLWVHAQYCMNK, the amyloid nucleation score is reported as “inactive”. For WLYARISADHDCLLKPELRM, the amyloid nucleation score was “inactive”. In the case of LLVTDYGFELTVQLWNKRSL, the amyloid nucleation score is reported as -0.155 ± 0.33. For FNVLNVNS, the amyloid nucleation score was “inactive”. For NSWIMYRGGKDDDFVVPWAA, the amyloid nucleation score was “inactive”. In the case of SNGNMLRSYVSTPCDRGKGS, the amyloid nucleation score is reported as “inactive”. In the case of TRAPVECNLCIGIEKDEVVR, the amyloid nucleation score is reported as “inactive”. In the case of MRSRGTLHYATDSLWSLGEP, the amyloid nucleation score is reported as “inactive”. In the case of GNLNGILFRISRQKEM, the amyloid nucleation score is reported as “inactive”. With LYMVINYMKCVARHGTQNDR the amyloid nucleation score was “inactive”. For TVASYVNCKRFVLWNYWLFS, the amyloid nucleation score was “inactive”. In the case of PFTLSSMVSVLPMGFRIGDK, the amyloid nucleation score is reported as “inactive”. SHLDGYICYCPLLKRWIDYR showed an amyloid nucleation score of -0.035 ± 0.59. YFKWVFKSYKPV showed an amyloid nucleation score of 1.35 ± 0.12. In the case of GRLCYNSTNYLRHAASCLSM, the amyloid nucleation score is reported as “inactive”. With VNVEFLASVFPWNISKKCEQ the amyloid nucleation score was “inactive”. For KVCRAYWYYPNFTMSRT, the amyloid nucleation score was “inactive”. In the case of YNYGKGRWHALLDISKVEVK, the amyloid nucleation score is reported as “inactive”. With DITRMVNNKFIWSSVSGLAC the amyloid nucleation score was “inactive”. With LLLIFS the amyloid nucleation score was “inactive”. With RCKSGLNSMGRRFRYRIQQP the amyloid nucleation score was 0.809 ± 0.18. With RYMFVVRTMPV the amyloid nucleation score was “inactive”. For MVVYKNYM, the amyloid nucleation score was “inactive”. In the case of LLFSAKGFECLMFVNRLYLA, the amyloid nucleation score is reported as “inactive”. In the case of EPDFEHIVCAFMGSTTGYYW, the amyloid nucleation score is reported as “inactive”. With CCNMYVSFTCWHRRRSFS the amyloid nucleation score was 1.23 ± 0.13. GFEPRRYP gave an amyloid nucleation score of -0.646 ± 1.3. In the case of VILVFIFRYLHTPSGSSGAR, the amyloid nucleation score is reported as “inactive”. With IHILFGTSWLMTRLFCLVK the amyloid nucleation score was “inactive”. With VFSNSGAETVLGLSKGWSDV the amyloid nucleation score was -0.542 ± 0.96.

Source: the supplement of paper PMC12042874
